Results from patent publication US20120171115A1 (AVIPEP, published 2012).

Biological target: recombinant HER2 ectodomain (human, UniProt P04626 23-652)
Assay: column shift assay: gel filtration monitored at A280, diabody pre-incubated with recombinant HER2 ectodomain
Procedure: Binding activity to soluble antigen was established by a column shift. […] In the column shift assay, at least two times mole excess of soluble antigen to diabody was incubated for 1 hr at ambient temperature. Binding activity was determined by comparing the resulting diabody/antigen complex peak to the free diabody peak. The elution profiles of the diabody or diabody/antigen complex was monitored either directly though absorbance at 280 nm or, in cases where the diabody was Europium labelled, elution fractions were measured in a Victor time-resolved fluorometer using the Europium mode in the Victor multilabel program wizard.

B1: AVP07-17 anti-Her2 diabody (other)
chain: QVQLVQSGAEVKKPGESLKISCKGSGYSFTSYWIAWVRQMPGKGLEYMGLIYPGDSDTKYSPSFQGQVTISVDKSVSTAYLQWSSLKPSDSAVYFCARHDVGYCSSSNCAKWPEYFQHWGQGTLVTVSSGGGGSQSVLTQPPSVSAAPGQKVTISCSGSSSNIGNNYVSWYQQLPGTVPKLLIYGHTNRPAGVPDRFSGSKSGTSASLAISGFRSEDEADYYCAAWDDSLSGWVFGGGTKLTVLGAAAEQKLISEEDLNGAAHHHHHH
notes: Diabody: homodimer of VH-Gly4Ser-VL chains from a human anti-HER2 mAb, with a C-terminal His6 tag from cloning; also called AVP07-17 Avibody
Question: Does B1 bind?
Answer: binds
